IntAct's records for PubMed 18606998

B1: Transient receptor potential cation channel subfamily V member 5 (Oryctolagus cuniculus (Rabbit)), Q9XSM3 (parent)
chain: MGACPPKAKGPWAQLQKLLISWPVGEQDWEQYRDRVNMLQQERIRDSPLLQAAKENDLRLLKILLLNQSCDFQQRGAVGETALHVAALYDNLEAATLLMEAAPELAKEPALCEPFVGQTALHIAVMNQNLNLVRALLARGASVSARATGAAFRRSPHNLIYYGEHPLSFAACVGSEEIVRLLIEHGADIRAQDSLGNTVLHILILQPNKTFACQMYNLLLSYDEHSDHLQSLELVPNHQGLTPFKLAGVEGNTVMFQHLMQKRKHVQWTCGPLTSTLYDLTEIDSWGEELSFLELVVSSKKREARQILEQTPVKELVSFKWKKYGRPYFCVLASLYILYMICFTTCCIYRPLKLRDDNRTDPRDITILQQKLLQEAYVTHQDNIRLVGELVTVTGAVIILLLEIPDIFRVGASRYFGQTILGGPFHVIIITYASLVLLTMVMRLTNMNGEVVPLSFALVLGWCSVMYFARGFQMLGPFTIMIQKMIFGDLMRFCWLMAVVILGFASAFHITFQTEDPNNLGEFSDYPTALFSTFELFLTIIDGPANYSVDLPFMYCITYAAFAIIATLLMLNLFIAMMGDTHWRVAQERDELWRAQVVATTVMLERKMPRFLWPRSGICGYEYGLGDRWFLRVENHHDQNPLRVLRYVEAFKCSDKEDGQEQLSEKRPSTVESGMLSRASVAFQTPSLSRTTSQSSNSHRGWEILRRNTLGHLNLGLDLGEGDGEEVYHF

Variants of: B1
Settings: with leg1_human LGALS1, P09382
leg1_human LGALS1, P09382, sequence (P09382 whole entry): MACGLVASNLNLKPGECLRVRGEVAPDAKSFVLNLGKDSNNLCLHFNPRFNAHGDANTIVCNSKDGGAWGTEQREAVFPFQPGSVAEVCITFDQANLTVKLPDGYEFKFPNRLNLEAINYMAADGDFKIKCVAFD

effect of a mutation on the interaction	Variant
disrupting interaction	N358Q
